Source: IntAct's records for PubMed 18273060

B1: Growth factor receptor-bound protein 7 (Mus musculus), Q03160 (parent)
chain: MELDLSPTHLSSSPEDVCPTPATPPETPPPPDNPPPGDVKRSQPLPIPSSRKLREEEFQATSLPSIPNPFPELCSPPSQKPILGGSSGARGLLPRDSSRLCVVKVYSEDGACRSVEVAAGATARHVCEMLVQRAHALSDESWGLVESHPYLALERGLEDHEFVVEVQEAWPVGGDSRFIFRKNFAKYELFKSPPHTLFPEKMVSSCLDAQTGISHEDLIQNFLNAGSFPEIQGFLQLRGSGRGSGRKLWKRFFCFLRRSGLYYSTKGTSKDPRHLQYVADVNESNVYVVTQGRKLYGMPTDFGFCVKPNKLRNGHKGLHIFCSEDEQSRTCWLAAFRLFKYGVQLYKNYQQAQSRHLRLSYLGSPPLRSVSDNTLVAMDFSGHAGRVIDNPREALSAAMEEAQAWRKKTNHRLSLPTTCSGSSLSAAIHRTQPWFHGRISREESQRLIGQQGLVDGVFLVRESQRNPQGFVLSLCHLQKVKHYLILPSEDEGCLYFSMDEGQTRFTDLLQLVEFHQLNRGILPCLLRHCCARVAL

Variants of: B1
Settings: with elav1_mouse Elavl1, P70372
Chain of elav1_mouse Elavl1, P70372 (P70372 whole entry): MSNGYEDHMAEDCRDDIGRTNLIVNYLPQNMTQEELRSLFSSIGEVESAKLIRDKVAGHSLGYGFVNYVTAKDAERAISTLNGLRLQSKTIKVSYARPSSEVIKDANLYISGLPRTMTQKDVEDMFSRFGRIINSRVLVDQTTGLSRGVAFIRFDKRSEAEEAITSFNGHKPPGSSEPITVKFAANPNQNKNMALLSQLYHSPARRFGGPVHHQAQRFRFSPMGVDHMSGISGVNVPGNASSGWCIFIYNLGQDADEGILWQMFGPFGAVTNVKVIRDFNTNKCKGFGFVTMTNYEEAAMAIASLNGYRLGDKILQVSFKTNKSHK

| effect of a mutation on the interaction | Variant |
| --- | --- |
| increasing interaction | Y495F |
